Changes are numbered by the printed parent chain.
Key:
[1] = target: T1, human OX40 extracellular domain (ECD) protein (human, UniProt P43489 29-214); assay: competition ELISA: human OX40 ECD coated, antibody titrated in a mix with a constant concentration of OX40L, bound OX40L detected at OD450
T1 construct: extracellular domain; also called human OX40 ECD; human OX40 protein; not shown: human Fc or His tag
T1 sequence (looked up): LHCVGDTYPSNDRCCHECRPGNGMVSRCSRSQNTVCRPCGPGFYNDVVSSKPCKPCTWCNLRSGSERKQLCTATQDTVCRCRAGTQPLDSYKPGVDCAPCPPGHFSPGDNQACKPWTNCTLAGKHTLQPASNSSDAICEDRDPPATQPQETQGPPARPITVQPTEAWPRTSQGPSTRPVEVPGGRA

[2] = target: T1, human OX40 extracellular domain (ECD) …; assay: SPR, Biacore T200, antibody captured, OX40 as analyte
Protocol: Antibodies were characterized for affinity and binding kinetics to OX40 by SPR assay using Biacore T200 (GE). […] Then various concentrations of human or monkey OX40 and running buffer were flowed through the sensor chip at a flow rate of 30 μL/min for an association phase of 180 s, followed by dissociation. The association and dissociation curve was fit by 1:1 Langmuir binding model using the BIAevaluation T200 software.

human OX40-ECD.His L89A = target: T2, human OX40-ECD.His L89A (human, UniProt P43489 29-214); assay: ELISA, antibody coated, OX40-ECD.His mutant supernatant; relative to silent alanine substitutions;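 further: captured OX40 mutant protein detected with HRP-labelled anti-His antibody, absorbance read-out, scaled to the mean signal of control mutants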
T2 construct: extracellular domain; not shown: C-terminal His-tag
T2 sequence (looked up): T1 sequence (looked up) with L61A

human OX40-ECD.His I165A = target: T3, human OX40-ECD.His I165A (human, UniProt P43489 29-214); assay: as above
T3 construct: extracellular domain; not shown: C-terminal His-tag
T3 sequence (looked up): T1 sequence (looked up) with I137A

human OX40-ECD.His L98A = target: T4, human OX40-ECD.His L98A (human, UniProt P43489 29-214); assay: as above
T4 construct: extracellular domain; not shown: C-terminal His-tag
T4 sequence (looked up): T1 sequence (looked up) with L70A

human OX40-ECD.His K79A = target: T5, human OX40-ECD.His K79A (human, UniProt P43489 29-214); assay: as above
T5 construct: extracellular domain; not shown: C-terminal His-tag
T5 sequence (looked up): T1 sequence (looked up) with K51A

human OX40-ECD.His Q103A = target: T6, human OX40-ECD.His Q103A (human, UniProt P43489 29-214); assay: as above
T6 construct: extracellular domain; not shown: C-terminal His-tag
T6 sequence (looked up): T1 sequence (looked up) with Q75A

human OX40-ECD.His Q60A = target: T7, human OX40-ECD.His Q60A (human, UniProt P43489 29-214); assay: as above
T7 construct: extracellular domain; not shown: C-terminal His-tag
T7 sequence (looked up): T1 sequence (looked up) with Q32A

human OX40-ECD.His G33A = target: T8, human OX40-ECD.His G33A (human, UniProt P43489 29-214); assay: as above
T8 construct: extracellular domain; not shown: C-terminal His-tag
T8 sequence (looked up): T1 sequence (looked up) with G5A

human OX40-ECD.His D124A = target: T9, human OX40-ECD.His D124A (human, UniProt P43489 29-214); assay: as above
T9 construct: extracellular domain; not shown: C-terminal His-tag
T9 sequence (looked up): T1 sequence (looked up) with D96A

human OX40-ECD.His A158G = target: T10, human OX40-ECD.His A158G (human, UniProt P43489 29-214); assay: as above
T10 construct: extracellular domain; not shown: C-terminal His-tag
T10 sequence (looked up): T1 sequence (looked up) with A130G

IC50 (read off the curve) [1]: ~1 nM | Kd [2]: 0.179 nM | koff [2]: 3.7e-05 s⁻¹ | kon [2]: 207000 M⁻¹ s⁻¹ | Fold Change (human OX40-ECD.His L89A): 0.992 | Fold Change (human OX40-ECD.His I165A): 0.871 | Fold Change (human OX40-ECD.His L98A): 1.01 | Fold Change (human OX40-ECD.His K79A): 0.992 | Fold Change (human OX40-ECD.His Q103A): 0.974 | Fold Change (human OX40-ECD.His Q60A): 0.971 | Fold Change (human OX40-ECD.His G33A): 1 | Fold Change (human OX40-ECD.His D124A): 0.989 | Fold Change (human OX40-ECD.His A158G): 1.01
B1: 1.134.9-u1-IgG1L (antibody, V domains shown)
VH: QVQLQESGPGLVKPSGTLSLTCAVSGGSISSYNWWSWVRQPPGKGLEWIGEIYHGGNTNYNPSLKSRVTMSVDNSKNQFSLKLSSVTAADTAVYYCARAPGDWGGSPYFDFWGQGTLVTVSS
VL: SSELTQDPAVSVALGQTVRITCQGDNLRTYYASWYQQKPGQAPILLIYGRNKRPSGIPDRFSGSSSGNTASLTITGAQAEDEAAYYCNSRDSSGNPVVFGGGTKLTVL
notes: fully human IgG1, lambda
